# Source: patent US20020147999A1 (J DAVID GLADSTONE INSTITUTES, published 2002)
# Molecular target: apoE cleavage enzyme (chymotrypsin-like serine protease; in mouse brain lysate or roughly/partially purified)
# Assay: cell-based or functional assay
row,"inhibition of apoE cleavage enzyme activity (chromogenic assay, 1 mM Ala-Ala-Pro-Phe-p-nitroanilide; 6 mM peptide; 20 hour incubation) [%]",Binder
1,67,AAPF [Ala-Ala-Pro-Phe (SEQ ID NO:1)]
2,56,AAPL [Ala-Ala-Pro-Leu (SEQ ID NO:3)]
3,58,AAAAPF [Ala-Ala-Ala-Ala-Pro-Phe (SEQ ID NO:4)]
